One block for each binder: values may come before it.
Experiments:
4H3592-bA = target: T1, 4H3592-bA; assay: two-hybrid library CCNG1;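 further: natural log of median RNA to DNA barcode read ratio; higher means stronger binding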
T1 chain: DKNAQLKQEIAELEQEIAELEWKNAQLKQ

4H3601-bA = target: T2, 4H3601-bA; assay: two-hybrid library CCNG1;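 further: natural log of median RNA to DNA barcode read ratio; higher means stronger binding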
T2 chain: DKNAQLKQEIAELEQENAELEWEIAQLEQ

4H4038-bA = target: T3, 4H4038-bA; assay: two-hybrid library CCNG1;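 further: natural log of median RNA to DNA barcode read ratio; higher means stronger binding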
T3 chain: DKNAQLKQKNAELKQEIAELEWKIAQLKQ

4H3907-bA = target: T4, 4H3907-bA; assay: two-hybrid library CCNG1;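 further: natural log of median RNA to DNA barcode read ratio; higher means stronger binding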
T4 chain: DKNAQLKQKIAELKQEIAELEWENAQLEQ

P4A-bH = target: T5, P4A-bH; assay: two-hybrid library CCNG1
T5 chain: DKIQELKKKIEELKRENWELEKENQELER

4H1845-AA = target: T6, 4H1845-AA; assay: two-hybrid library CCmax; settings: mean of both orientations
T6 chain: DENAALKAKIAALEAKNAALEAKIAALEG

4H3718-AA = target: T7, 4H3718-AA; assay: two-hybrid library CCmax; settings: mean of both orientations
T7 chain: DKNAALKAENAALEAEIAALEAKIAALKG

4H1513-AA = target: T8, 4H1513-AA; assay: two-hybrid library CCmax; settings: mean of both orientations
T8 chain: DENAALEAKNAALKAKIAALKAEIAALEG

4H2611-AA = target: T9, 4H2611-AA; assay: two-hybrid library CCmax; settings: mean of both orientations
T9 chain: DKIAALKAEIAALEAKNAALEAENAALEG

4H2198-AA = target: T10, 4H2198-AA; assay: two-hybrid library CCmax; settings: mean of both orientations
T10 chain: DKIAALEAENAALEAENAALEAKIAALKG

4H2553-AA = target: T11, 4H2553-AA; assay: two-hybrid library CCmax; settings: mean of both orientations
T11 chain: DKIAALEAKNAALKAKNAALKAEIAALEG

4H1874-AA = target: T12, 4H1874-AA; assay: two-hybrid library CCmax; settings: mean of both orientations
T12 chain: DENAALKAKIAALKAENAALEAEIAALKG

4H982-AA = target: T13, 4H982-AA; assay: two-hybrid library CCmax; settings: mean of both orientations
T13 chain: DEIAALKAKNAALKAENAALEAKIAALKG

4H2620-AA = target: T14, 4H2620-AA; assay: two-hybrid library CCmax; settings: mean of both orientations
T14 chain: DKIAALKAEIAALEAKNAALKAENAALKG

4H3588-AA = target: T15, 4H3588-AA; assay: two-hybrid library CCmax; settings: mean of both orientations
T15 chain: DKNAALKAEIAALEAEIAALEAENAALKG

4H32-AA = target: T16, 4H32-AA; assay: two-hybrid library CCmax; settings: mean of both orientations
T16 chain: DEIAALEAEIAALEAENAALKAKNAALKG

4H3378-AA = target: T17, 4H3378-AA; assay: two-hybrid library CCmax; settings: mean of both orientations
T17 chain: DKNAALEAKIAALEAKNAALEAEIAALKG

4H3865-AA = target: T18, 4H3865-AA; assay: two-hybrid library CCmax; settings: mean of both orientations
T18 chain: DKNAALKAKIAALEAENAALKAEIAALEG

4H384-AA = target: T19, 4H384-AA; assay: two-hybrid library CCmax; settings: mean of both orientations
T19 chain: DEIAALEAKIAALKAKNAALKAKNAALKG

4H1401-AA = target: T20, 4H1401-AA; assay: two-hybrid library CCmax; settings: mean of both orientations
T20 chain: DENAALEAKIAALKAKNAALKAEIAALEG

4H1629-AA = target: T21, 4H1629-AA; assay: two-hybrid library CCmax; settings: mean of both orientations
T21 chain: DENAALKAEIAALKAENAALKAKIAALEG

4H340-AA = target: T22, 4H340-AA; assay: two-hybrid library CCmax; settings: mean of both orientations
T22 chain: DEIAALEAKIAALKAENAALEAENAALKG

4H3631-AA = target: T23, 4H3631-AA; assay: two-hybrid library CCmax; settings: mean of both orientations
T23 chain: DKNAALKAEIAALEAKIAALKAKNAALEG

4H1388-AA = target: T24, 4H1388-AA; assay: two-hybrid library CCmax
T24 chain: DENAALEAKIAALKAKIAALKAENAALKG

4H697-AA = target: T25, 4H697-AA; assay: two-hybrid library CCmax; settings: mean of both orientations
T25 chain: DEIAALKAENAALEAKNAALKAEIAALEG

4H3133-AA = target: T26, 4H3133-AA; assay: two-hybrid library CCmax; settings: mean of both orientations
T26 chain: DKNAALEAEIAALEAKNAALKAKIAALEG

4H3056-AA = target: T27, 4H3056-AA; assay: two-hybrid library CCmax; settings: mean of both orientations
T27 chain: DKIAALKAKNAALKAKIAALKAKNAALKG

4H3606-AA = target: T28, 4H3606-AA; assay: two-hybrid library CCmax; settings: mean of both orientations
T28 chain: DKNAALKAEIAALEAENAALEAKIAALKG

4H2648-AA = target: T29, 4H2648-AA; assay: two-hybrid library CCmax; settings: mean of both orientations
T29 chain: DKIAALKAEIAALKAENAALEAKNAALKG

4H1594-AA = target: T30, 4H1594-AA; assay: two-hybrid library CCmax; settings: mean of both orientations
T30 chain: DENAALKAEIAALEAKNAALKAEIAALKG

4H2907-AA = target: T31, 4H2907-AA; assay: two-hybrid library CCmax; settings: mean of both orientations
T31 chain: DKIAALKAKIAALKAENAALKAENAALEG

4H3413-AA = target: T32, 4H3413-AA; assay: two-hybrid library CCmax; settings: mean of both orientations
T32 chain: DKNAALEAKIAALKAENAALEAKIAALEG

4H3697-AA = target: T33, 4H3697-AA; assay: two-hybrid library CCmax; settings: mean of both orientations
T33 chain: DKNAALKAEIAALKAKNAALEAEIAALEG

4H3162-AA = target: T34, 4H3162-AA; assay: two-hybrid library CCmax; settings: mean of both orientations
T34 chain: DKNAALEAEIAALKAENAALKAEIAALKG

- interaction score (4H3592-bA): -0.131
- interaction score (4H3601-bA): -0.03
- interaction score (4H4038-bA): -0.458
- interaction score (4H3907-bA): 0.467
- interaction score (P4A-bH): 1.36
B1: 4H3592-bA (peptide)
chain: DKNAQLKQEIAELEQEIAELEWKNAQLKQ

- interaction score (4H1845-AA): -1.71
- interaction score (4H3718-AA): -0.0337
- interaction score (4H1513-AA): -0.0302
- interaction score (4H2611-AA): -0.829
- interaction score (4H2198-AA): -1.08
- interaction score (4H2553-AA): -1.78
- interaction score (4H1874-AA): -1.59
- interaction score (4H982-AA): -2.08
- interaction score (4H2620-AA): -0.0212
- interaction score (4H3588-AA): 2.13
- interaction score (4H32-AA): 2.52
- interaction score (4H3378-AA): -1.68
- interaction score (4H3865-AA): -1.23
- interaction score (4H384-AA): -0.356
- interaction score (4H1401-AA): -2
- interaction score (4H1629-AA): -1.24
- interaction score (4H340-AA): -0.251
- interaction score (4H3631-AA): 0.242
- interaction score (4H1388-AA): -0.698
- interaction score (4H697-AA): -1.54
- interaction score (4H3133-AA): -1.57
- interaction score (4H3056-AA): -1.68
- interaction score (4H3606-AA): 0.583
- interaction score (4H2648-AA): -0.194
- interaction score (4H1594-AA): -1.66
- interaction score (4H2907-AA): -0.775
- interaction score (4H3413-AA): -1.7
- interaction score (4H3697-AA): -1.77
- interaction score (4H3162-AA): -1.45
B2: 4H1388-AA (peptide)
chain: DENAALEAKIAALKAKIAALKAENAALKG
